Measured values as given in paper PMC10973816.

Key:
[1] = Non-permeabilised mAb-1438 immunolabelling, HEK, untagged; conditions: glycan lost; control: wild type
[2] = EGFP in TRPM1-positive OPL puncta, electroporated mouse retina; conditions: glycan lost; control: wild type mGluR6-EGFP
[3] = Total EGFP fluorescence, HEK; conditions: glycan lost; control: wild type mGluR6-EGFP
[4] = Permeabilised mAb-1438 immunolabelling, HEK, untagged; conditions: glycan lost; control: wild type

| Protein | localisation_or_trafficking [1] | localisation_or_trafficking [2] | expression_or_secretion [3] | expression_or_secretion [4] |
| --- | --- | --- | --- | --- |
| mGluR6 (metabotropic glutamate receptor 6): N290Q (protein) parent chain: MGRLRVLLLWLAWWLSQAGIAHGAGSVRLAGGLTLGGLFPVHARGAAGRACGTLKKEQGVHRLEAMLYALDRINADPELLPGVRLGARLLDTCSRDTYALEQALSFVQALIRGRGDGEEASVRCPGGVPPLRAAPPERVVAVVGASASSVSIMVANVLRLFAIPQISYASTAPELSDSTRYDFFSRVVPPDSYQAQAMVDIVRALGWNYVSTLASEGNYGESGVEAFVQISREAGGVCIAQSIKIPREPKPGEFHKVIRRLMETPNARGIIIFANEDDIRRVLEATRQANLTGHFLWVGSDSWGSKISPILNLEEEAVGAITILPKRASIDGFDQYFMTRSLENNRRNIWFAEFWEENFNCKLTSSGGQSDDSTRKCTGEERIGQDSTYEQEGKVQFVIDAVYAIAHALHSMHQALCPGHTGLCPAMEPTDGRTLLHYIRAVRFNGSAGTPVMFNENGDAPGRYDIFQYQATNGSASSGGYQAVGQWAEALRLDMEALQWSGDPHEVPPSQCSLPCGPGERKKMVKGVPCCWHCEACDGYRFQVDEFTCEACPGHMRPTPNHTGCRPTPVVRLTWSSPWAALPLLLAVLGIMATTTIIATFMRHNDTPIVRASGRELSYVLLTGIFLIYAITFLMVAEPCAAVCASRRLLLGLGTTLSYSALLTKTNRIYRIFEQGKRSVTPPPFISPTSQLVITFGLTSLQVVGVIAWLGAQPPHSVIDYEEQRTVDPEQARGVLKCDMSDLSLIGCLGYSLLLMVTCTVYAIKARGVPETFNEAKPIGFTMYTTCIIWLAFVPIFFGTAQSAEKIYIQTTTLTVSLSLSASVSLGMLYVPKTYVILFHPEQNVQKRKRSLKKTSTMAAPPKSENSEDAK | no change | no change | – | – |
| mGluR6 (metabotropic glutamate receptor 6): N473Q (protein) parent chain: MGRLRVLLLWLAWWLSQAGIAHGAGSVRLAGGLTLGGLFPVHARGAAGRACGTLKKEQGVHRLEAMLYALDRINADPELLPGVRLGARLLDTCSRDTYALEQALSFVQALIRGRGDGEEASVRCPGGVPPLRAAPPERVVAVVGASASSVSIMVANVLRLFAIPQISYASTAPELSDSTRYDFFSRVVPPDSYQAQAMVDIVRALGWNYVSTLASEGNYGESGVEAFVQISREAGGVCIAQSIKIPREPKPGEFHKVIRRLMETPNARGIIIFANEDDIRRVLEATRQANLTGHFLWVGSDSWGSKISPILNLEEEAVGAITILPKRASIDGFDQYFMTRSLENNRRNIWFAEFWEENFNCKLTSSGGQSDDSTRKCTGEERIGQDSTYEQEGKVQFVIDAVYAIAHALHSMHQALCPGHTGLCPAMEPTDGRTLLHYIRAVRFNGSAGTPVMFNENGDAPGRYDIFQYQATNGSASSGGYQAVGQWAEALRLDMEALQWSGDPHEVPPSQCSLPCGPGERKKMVKGVPCCWHCEACDGYRFQVDEFTCEACPGHMRPTPNHTGCRPTPVVRLTWSSPWAALPLLLAVLGIMATTTIIATFMRHNDTPIVRASGRELSYVLLTGIFLIYAITFLMVAEPCAAVCASRRLLLGLGTTLSYSALLTKTNRIYRIFEQGKRSVTPPPFISPTSQLVITFGLTSLQVVGVIAWLGAQPPHSVIDYEEQRTVDPEQARGVLKCDMSDLSLIGCLGYSLLLMVTCTVYAIKARGVPETFNEAKPIGFTMYTTCIIWLAFVPIFFGTAQSAEKIYIQTTTLTVSLSLSASVSLGMLYVPKTYVILFHPEQNVQKRKRSLKKTSTMAAPPKSENSEDAK | decreases | no change | – | – |
| mGluR6 (metabotropic glutamate receptor 6): triple mutant (only N290 left) (protein) parent chain: MGRLRVLLLWLAWWLSQAGIAHGAGSVRLAGGLTLGGLFPVHARGAAGRACGTLKKEQGVHRLEAMLYALDRINADPELLPGVRLGARLLDTCSRDTYALEQALSFVQALIRGRGDGEEASVRCPGGVPPLRAAPPERVVAVVGASASSVSIMVANVLRLFAIPQISYASTAPELSDSTRYDFFSRVVPPDSYQAQAMVDIVRALGWNYVSTLASEGNYGESGVEAFVQISREAGGVCIAQSIKIPREPKPGEFHKVIRRLMETPNARGIIIFANEDDIRRVLEATRQANLTGHFLWVGSDSWGSKISPILNLEEEAVGAITILPKRASIDGFDQYFMTRSLENNRRNIWFAEFWEENFNCKLTSSGGQSDDSTRKCTGEERIGQDSTYEQEGKVQFVIDAVYAIAHALHSMHQALCPGHTGLCPAMEPTDGRTLLHYIRAVRFNGSAGTPVMFNENGDAPGRYDIFQYQATNGSASSGGYQAVGQWAEALRLDMEALQWSGDPHEVPPSQCSLPCGPGERKKMVKGVPCCWHCEACDGYRFQVDEFTCEACPGHMRPTPNHTGCRPTPVVRLTWSSPWAALPLLLAVLGIMATTTIIATFMRHNDTPIVRASGRELSYVLLTGIFLIYAITFLMVAEPCAAVCASRRLLLGLGTTLSYSALLTKTNRIYRIFEQGKRSVTPPPFISPTSQLVITFGLTSLQVVGVIAWLGAQPPHSVIDYEEQRTVDPEQARGVLKCDMSDLSLIGCLGYSLLLMVTCTVYAIKARGVPETFNEAKPIGFTMYTTCIIWLAFVPIFFGTAQSAEKIYIQTTTLTVSLSLSASVSLGMLYVPKTYVILFHPEQNVQKRKRSLKKTSTMAAPPKSENSEDAK | decreases | – | decreases | decreases |
| mGluR6 (metabotropic glutamate receptor 6): 3Q!445 (protein) parent chain: MGRLRVLLLWLAWWLSQAGIAHGAGSVRLAGGLTLGGLFPVHARGAAGRACGTLKKEQGVHRLEAMLYALDRINADPELLPGVRLGARLLDTCSRDTYALEQALSFVQALIRGRGDGEEASVRCPGGVPPLRAAPPERVVAVVGASASSVSIMVANVLRLFAIPQISYASTAPELSDSTRYDFFSRVVPPDSYQAQAMVDIVRALGWNYVSTLASEGNYGESGVEAFVQISREAGGVCIAQSIKIPREPKPGEFHKVIRRLMETPNARGIIIFANEDDIRRVLEATRQANLTGHFLWVGSDSWGSKISPILNLEEEAVGAITILPKRASIDGFDQYFMTRSLENNRRNIWFAEFWEENFNCKLTSSGGQSDDSTRKCTGEERIGQDSTYEQEGKVQFVIDAVYAIAHALHSMHQALCPGHTGLCPAMEPTDGRTLLHYIRAVRFNGSAGTPVMFNENGDAPGRYDIFQYQATNGSASSGGYQAVGQWAEALRLDMEALQWSGDPHEVPPSQCSLPCGPGERKKMVKGVPCCWHCEACDGYRFQVDEFTCEACPGHMRPTPNHTGCRPTPVVRLTWSSPWAALPLLLAVLGIMATTTIIATFMRHNDTPIVRASGRELSYVLLTGIFLIYAITFLMVAEPCAAVCASRRLLLGLGTTLSYSALLTKTNRIYRIFEQGKRSVTPPPFISPTSQLVITFGLTSLQVVGVIAWLGAQPPHSVIDYEEQRTVDPEQARGVLKCDMSDLSLIGCLGYSLLLMVTCTVYAIKARGVPETFNEAKPIGFTMYTTCIIWLAFVPIFFGTAQSAEKIYIQTTTLTVSLSLSASVSLGMLYVPKTYVILFHPEQNVQKRKRSLKKTSTMAAPPKSENSEDAK | decreases | no change | decreases | decreases |
| mGluR6 (metabotropic glutamate receptor 6): triple mutant (only N473 left) (protein) parent chain: MGRLRVLLLWLAWWLSQAGIAHGAGSVRLAGGLTLGGLFPVHARGAAGRACGTLKKEQGVHRLEAMLYALDRINADPELLPGVRLGARLLDTCSRDTYALEQALSFVQALIRGRGDGEEASVRCPGGVPPLRAAPPERVVAVVGASASSVSIMVANVLRLFAIPQISYASTAPELSDSTRYDFFSRVVPPDSYQAQAMVDIVRALGWNYVSTLASEGNYGESGVEAFVQISREAGGVCIAQSIKIPREPKPGEFHKVIRRLMETPNARGIIIFANEDDIRRVLEATRQANLTGHFLWVGSDSWGSKISPILNLEEEAVGAITILPKRASIDGFDQYFMTRSLENNRRNIWFAEFWEENFNCKLTSSGGQSDDSTRKCTGEERIGQDSTYEQEGKVQFVIDAVYAIAHALHSMHQALCPGHTGLCPAMEPTDGRTLLHYIRAVRFNGSAGTPVMFNENGDAPGRYDIFQYQATNGSASSGGYQAVGQWAEALRLDMEALQWSGDPHEVPPSQCSLPCGPGERKKMVKGVPCCWHCEACDGYRFQVDEFTCEACPGHMRPTPNHTGCRPTPVVRLTWSSPWAALPLLLAVLGIMATTTIIATFMRHNDTPIVRASGRELSYVLLTGIFLIYAITFLMVAEPCAAVCASRRLLLGLGTTLSYSALLTKTNRIYRIFEQGKRSVTPPPFISPTSQLVITFGLTSLQVVGVIAWLGAQPPHSVIDYEEQRTVDPEQARGVLKCDMSDLSLIGCLGYSLLLMVTCTVYAIKARGVPETFNEAKPIGFTMYTTCIIWLAFVPIFFGTAQSAEKIYIQTTTLTVSLSLSASVSLGMLYVPKTYVILFHPEQNVQKRKRSLKKTSTMAAPPKSENSEDAK | decreases | – | decreases | decreases |
| mGluR6 (metabotropic glutamate receptor 6): 3Q!561 (protein) parent chain: MGRLRVLLLWLAWWLSQAGIAHGAGSVRLAGGLTLGGLFPVHARGAAGRACGTLKKEQGVHRLEAMLYALDRINADPELLPGVRLGARLLDTCSRDTYALEQALSFVQALIRGRGDGEEASVRCPGGVPPLRAAPPERVVAVVGASASSVSIMVANVLRLFAIPQISYASTAPELSDSTRYDFFSRVVPPDSYQAQAMVDIVRALGWNYVSTLASEGNYGESGVEAFVQISREAGGVCIAQSIKIPREPKPGEFHKVIRRLMETPNARGIIIFANEDDIRRVLEATRQANLTGHFLWVGSDSWGSKISPILNLEEEAVGAITILPKRASIDGFDQYFMTRSLENNRRNIWFAEFWEENFNCKLTSSGGQSDDSTRKCTGEERIGQDSTYEQEGKVQFVIDAVYAIAHALHSMHQALCPGHTGLCPAMEPTDGRTLLHYIRAVRFNGSAGTPVMFNENGDAPGRYDIFQYQATNGSASSGGYQAVGQWAEALRLDMEALQWSGDPHEVPPSQCSLPCGPGERKKMVKGVPCCWHCEACDGYRFQVDEFTCEACPGHMRPTPNHTGCRPTPVVRLTWSSPWAALPLLLAVLGIMATTTIIATFMRHNDTPIVRASGRELSYVLLTGIFLIYAITFLMVAEPCAAVCASRRLLLGLGTTLSYSALLTKTNRIYRIFEQGKRSVTPPPFISPTSQLVITFGLTSLQVVGVIAWLGAQPPHSVIDYEEQRTVDPEQARGVLKCDMSDLSLIGCLGYSLLLMVTCTVYAIKARGVPETFNEAKPIGFTMYTTCIIWLAFVPIFFGTAQSAEKIYIQTTTLTVSLSLSASVSLGMLYVPKTYVILFHPEQNVQKRKRSLKKTSTMAAPPKSENSEDAK | decreases | abolishes | decreases, 3Q!561 had the highest expression among the triple mutants | decreases |
